In the NTF2 design screens of Basanta et al. (2020):

Test: protease stability score; higher = more stable; yeast display proteolysis, trypsin and chymotrypsin;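 also: relative to predicted unfolded state with 0 unfolded-like and 1 meaning tenfold more protease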

Row | Sequence | protease stability score
1 | DEYDHIAKLMVKLWLEWYLTGDEDYFNHYADPEVRSEVGDKRFHGRELFMRYIWEHHRERGVEIEIIVRRVEVQGEKAEVDGELIVRQGDKEHRLRVHIELKVVNGVLKKIRIEFR | 0.561
2 | DEDRIISEEAAKLFLHLLLTGDEKVFDEYLDPRTRLIIGDKEFIGRETLRKTMQEFRHKAGIDHMHIRDSRIELIDGRVVQHLEIHVRFNGKSEDRVIHVFIEKINGRWHIHFVEVKID | 1.53
3 | DEEHHNAREMLKLFLDFMQTGDWESHLEMADPNVKVIIDGQEFIGRESSERLIREIRIKRHHLEEERIEVQGDKAIVRLRGRRDGNVNGVETETEVHIRIHFKKIDGRWVMTSVHIEVV | 1.75
4 | DETDKLAFELMEELLENFHTGNEERFHQLFDPDVRIIVNGRTLHGRRHWHKILEDIIREWRIKHIHMERLISIGDKARLDMRWNVRVNGREVHTESHVNLTVVDGRITLLEIQHH | 1.52
5 | DEKEEEMEIASELALHVWETGDPDEFLKLADPHVKIDFDGVDIHGMDKEHERWKRVKNLTMHIKRFSYQGDKVHLDVILIVNGRTETIHIIASKVNGRWLIKRVIINRR | 1.37
6 | TEEDHKAFTMVELFLNALTTGDERTLEKLVDPNVRVNIDGRDVHGMSILIRWREHLRFEFREVNNKRSELQGEKLHVDSEVDRHIRIGDKEDREHIRIHFHLLKINGRWFIEEVRML | 1.36
7 | DEKHEIMREALKEFITEQRTGNEDRIKQLMDPNVRIFVGDKEFHGREEVMRILKILRHELGVDNIFIILRSMHIVDGRVHLDVELHINGRIFKSELVILKIDGQWLIRSIHIE | 1.66
8 | SEDEEYMHNVARLLMESLLTGDEKTLKELFDPNTRVDINGKDIHGREDILTDWKRREHEWRVEDIKIEHEEVQGNKAVLHGKVTGDINGVKTHIHRDVHWEVINGKLKYVKFEHR | 1.12
9 | SDEDHSSHLAHRWLLEILETGDEERLLRLADPNYRLDVDGRRFIGREDLLRWMKHVVERADHIELRDHHVDNQGDKVSSDVIVNERFDGKTERYRTHIVINKFDGKWVFHRFKIK | 0.928
10 | DEFNEATRRALHEEMKTRHTGDEDLFHRLADPDVRVIYGDKHIHGREEVVHWLREIRVKTHHLEIRRSHFQGEKAHVDGKLNGDFIFDGRTFTVQIHVEFIMIKWNGQWRIEMLRFE | 1.09
11 | SEEDEELREMARLIILLEWTGDEETFEHLADPHVRSHINGVHLHGRETVSKWLMHVREHLRFNDIRIRDLWVFNGKVKINGEYDGHVNGRRIRYTVHLYFVIIDGRIREISREHR | 0.301
12 | DEDKTNLDMALRLLKEVTETGDEETLLKMMDPNVRIIINGRDVHGRENAERFATEWSRKVKNATLEVKDFHSQGEKVHLLGHDIFNGREIEFRIIWVKYNGRWFIHEIIFI | 1.3
13 | SEDEELAQTFLELWVHFLRTGDESMLEQYIDPHARFKVGDKEDHGMKVFKDLLHHIRIEDFRVHHVEIRIVGEWIEIRMDITLHGRVDGVRDTKRVHVHINAEKYNGRWRIKELEIRHR | 1.74
14 | DEMEEKIRTHMSLLVEYLDTGDEEITKSMLDPNTMAFYGDKLHIGREEAEEILREIRVHHLDIKRIDHQGDKIRVDGEMDGIVNGKRYRTRVEIFSTKINGRWIIEQRVIR | 1.04
15 | DDLEHQARESLDLHTEARKTGDEDQLKNLIDPHVRIEQGDKHIHGMEMFIRHWHKLGADHSEFRLKHVRVIDGRVRIDGEMIIHINGRTISIEVHFNINKINGRWIITEIHIH | 1.09
16 | DEDEELSERATREFIENWKTGNFDDLMKLLDPNVKLDVGDKRHHGRERMVRSMVEILKHLGANVIDIHDTDVYDGRIDIHLRLEAENHHSILTIHIEKINGRWLIRSMEIK | 1.26
17 | DDIEKLMLWALHLFSHALSTGNEELVIRLADPHYRLHIGDWESHGRENFRQFIHEIRMHMKRVDDRDIRVQGEFVRIEGELDGVIFIDGRTFRTRLDTRIILNKVDGRWFIHSNHVH | 1.27
18 | DEDREFAERVMKLLLHSLITGDFRRIHELADPHMRLHQGDFNIIGWDTIYEIMFRLGFRLDDFRIEHMDVVDGRVFLQGRSDGTINGRRTRTNVNIIIEKIDGRWYLRENEVR | 1.08

Row | Sequence | protease stability score
19 | TEEEEHTDMVRRIWVEIAKTGDERSWEKYFDPNARMHIFFNGQEIELHGRETITKWLHETLTRIKGLRMEIEHFENIGDKVHMDTRFIIGDKERKSEVEIIVVDGRLKSVTIRHR | 1.78
20 | DEITEHTRSLMEVMLRVWETGDWKRFRELADPNVRMNVNGREVHGRDSVAKEIYKMLSDLGVDHSTTHHVDLIGNKAHHDVRMFFNGRETEIRIDIVLINGKVREVNIEIHTR | 2.14
21 | SEDEELEKVFLRILKEILTTGDEDTLRFLLDPNARMHVGDKELHGWSNVYEQINQLRIKDYELRDFKRVGDKVDFDGRNHGHFNGRDVEHRARLIIQKIDGRWFIHANIIE | 0.626
22 | DEIEEQSRRALHEYINKILTGDEKSLTDLMDPDARLIVGDKEVHGRKLVHEWMSQWTEHIRIKHVHLHDIEIIGEKVHLDMRLHGIINGKETEHKVELHMYKINGKWIIHTVKIL | 2.04
23 | SEEEQLIRLALEWELHSEETGDEELVRENADPHVRLEINGVEVIGMELAVKILFELKEDMGIKHIELKSVDTQGDKLNIHSKYHVNGRHIDVIIISKKVNGRWRMKRIIVTIR | 2.46
24 | DEEERDMKIAEEVFLHAMHTGDWKKFFELMDPHVKVHIDGVDLHGREEASKIWKERIDKVKNMTFDVKHSHRQGNKVTLHTELHVNGKTTHLIVVLSKVNGRWTLEEMSEE | 1.21
25 | DEREEMVERFLTEWLRSLVTGDWEDSEKLFDPNVRIHVNGREFHGRHEAIKHFHELRIHKIELKSIDIQGNKAHVDVEVDGNVNGQNRIIKVNLFFKKVNGRWYFEQVEIH | 1.24
26 | EENREITEKIMRHWLTLFLTGDFERLIELMDPEVKFLIDGRELHGWEVWRKLMTLTIRRYKNIRIHITSIDVFENHTHVETYENVNGVHIDTRLNLFLVNGRIQSIEMDTK | 1.7
27 | DHWEHVERMYSHEVLHMLETGDEHKFNKLMDPNARIDVGEWDLIGMHRVSHALKEVRDELGIKHSEVKHVDIFNGRVEIHTEVHVDGRSHKVRIEVIYVNGRTKWMRYEQH | 0.717
28 | DELEHHLFELMEKMIKARLTGDEETLHRLADPDTRIEVGEFEFHGREHWVRFVRELDERIKNIRFEIRLRRYETVGNKIHIDIELRYHQGDKEEHHRTEWILIVFNGRLKSIQIVLH | 1.81
29 | DEDHHESHRALTELFKDLLTGDWKSSKELADPHARVDINGKEYHGREEMERFFKELWERLGIDHIDVKHIEIQGNKVISHLEIHVNGRTFNLIIIIDKVNGRWIIHSMKMDTE | 0.968
30 | TERDELMKRFAHIFYHWLETGDEESIKKMLDPDTLSIVDGVNLHGRDEHSRWHVELHENLGIDQIHYRLRRVEVQGDKARIDGEEEINGKHVKLRIELEVINGRIKDIRVSVR | 1.45
31 | SEEEENIEHSLRIMNENLETGDEHSLAELFDPNAKIDIGDKHLHGRETLITHLVLLGIKHSSIINREYHMIGEWAHINGDLRIEIGDKERHHDVRILSRKIDGRWVVTEFHIR | 1.19
32 | DERQHEARKVFLEWIRREVTGDFERVRHLADPNMRMDINGVEHHGRDRMSELIFRQLEEMRIEIHIRHYHVIGEKVHANIEMRVRQGDWDETRTIEIIFVVIDGRLHDYTVHIL | 0.643
33 | SRESEEAKDDWEKIINDLRTGDFRSLRELFDPNVRLETENHEFHGWETAEHMVKRFDHIHVRREHFDHIEIQGEKVILDGTMRMEFIINGVVYEKEQRVIIIFLKYNGRWLIKEVEFI | 0.759
34 | REEEEHLKKFIEDHIRDLRTGDEQKVADQADPHVRTRFNGVDYHGREDHMKLMKHIRFEEMRIEDVKVQGDKAHIDSIITIEVDGQRETIKVHIIIVKIDGRWLLKQSHFN | 0.396
35 | SEEDKETKIALEISEKILETGDWEELSKNLDPDARFTFENRTHVGREEVSELLLKLIKEMGVNHVNIEDNDLQGDKIILIVEVRVGDKRVNLEIIAVKVNGRWRIHSIHERHE | 0.884
36 | DELEEISRRAQELSLRLFHTGDERSWERLVDPHAKLDVNGVDVHGRELVHKFFERNIRELGIKHIHLEHEEVQGNKVKLIMHINVNGVERRLVIIAEKIDGRWVLREHKEE | 0.464
